Residue numbers refer to the chain shown, from its start. Names and notes keep the numbering of the source. Values joined by “and” are separate entries in the source; they are usually repeats but may differ in a detail not shown here. Equal values may be shown once. No end group written: not given here.
T1: Med25-ACID R568A (Arabidopsis thaliana, UniProt Q7XYY2 532-680, R568A)
T1 sequence: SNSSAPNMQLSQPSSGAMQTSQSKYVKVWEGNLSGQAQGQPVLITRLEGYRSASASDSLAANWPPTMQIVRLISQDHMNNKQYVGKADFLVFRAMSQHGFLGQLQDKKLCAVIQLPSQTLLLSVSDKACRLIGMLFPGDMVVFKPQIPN

T2: Med25-ACID_(532-680), activator interaction domain (ACID) of mediator complex subunit 25 (Arabidopsis thaliana, UniProt Q7XYY2 532-680)
T2 construct: 15N- or 13C,15N-labelled in the NMR titrations; unlabelled in ITC, CEST and stopped-flow; also called AtMed25-ACID; ACID domain; source: E. coli BL21 DE3, purified (glutathione Sepharose, TEV cleavage, cation exchange, SEC); not shown: GST, N-terminal, cleaved
T2 sequence (looked up): T1 sequence with A37R

T3: Med25-ACID_(532-680), activator interaction domain (ACID) of mediator complex subunit 25 (Arabidopsis thaliana, UniProt Q7XYY2 532-680)
T3 chain: T1 sequence with A37R

B1: DREB2A_(195-276) (domain or fragment, Arabidopsis thaliana, UniProt O82132 195-276, looked up)
chain: VKADKHWLSEFEHNYWSDILKEKEKQKEQGIVETCQQQQQDSLSVADYGWPNDVDQSHLDSSDMFDVDELLRDLNGDDVFAG
notes: source: E. coli BL21 DE3, purified (glutathione Sepharose, TEV cleavage, SEC); not shown: GST, N-terminal, cleaved
B2: DREB2A_(195-335,Δ244-276) (domain or fragment, Arabidopsis thaliana, UniProt O82132 195-335, looked up)
chain: VKADKHWLSEFEHNYWSDILKEKEKQKEQGIVETCQQQQQDSLSVADYGLNQDRYPGNSVANGSYRPESQQSGFDPLQSLNYGIPPFQLEGKDGNGFFDDLSYLDLEN
notes: also called splice variant fragment; source: E. coli BL21 DE3, purified (glutathione Sepharose, TEV cleavage, SEC); not shown: GST, N-terminal, cleaved
B3: DREB2A_(234-335) (domain or fragment, Arabidopsis thaliana, UniProt O82132 234-335, looked up)
chain: QDSLSVADYGWPNDVDQSHLDSSDMFDVDELLRDLNGDDVFAGLNQDRYPGNSVANGSYRPESQQSGFDPLQSLNYGIPPFQLEGKDGNGFFDDLSYLDLEN
notes: DREB2A, Arabidopsis thaliana, AT5G05410, residues 234-335; source: E. coli BL21 DE3, purified (glutathione Sepharose, TEV cleavage, SEC); not shown: GST, N-terminal, cleaved
B4: DREB2A_(234-276,P245A) (domain or fragment, Arabidopsis thaliana, UniProt O82132 234-276, looked up)
chain: QDSLSVADYGWANDVDQSHLDSSDMFDVDELLRDLNGDDVFAG
notes: Isotope-labelled in the CEST experiments; also called ABS-RIM_(P245A); DREB2A_(P245A); source: E. coli BL21 DE3, purified (glutathione Sepharose, TEV cleavage, SEC); not shown: GST, N-terminal, cleaved
B5: DREB2A_(195-276) W244A (domain or fragment, Arabidopsis thaliana, UniProt O82132 195-276, looked up)
chain: B1 chain with W50A
notes: as for B1
B6: DREB2A_(195-276) E263P (domain or fragment, Arabidopsis thaliana, UniProt O82132 195-276, looked up)
chain: B1 chain with E69P
notes: also called helix-disrupting DREB2A E263P variant; source: E. coli BL21 DE3, purified (glutathione Sepharose, TEV cleavage, SEC); not shown: GST, N-terminal, cleaved
B7: DREB2A_(195-276) F274A (domain or fragment, Arabidopsis thaliana, UniProt O82132 195-276, looked up)
chain: B1 chain with F80A
notes: as for B1
B8: DREB2A_(195-276) F259A (domain or fragment, Arabidopsis thaliana, UniProt O82132 195-276, looked up)
chain: B1 chain with F65A
notes: as for B1
B9: DREB2A_(195-276) L237A (domain or fragment, Arabidopsis thaliana, UniProt O82132 195-276, looked up)
chain: B1 chain with L43A
notes: as for B1
B10: DREB2A_(195-276) D241A (domain or fragment, Arabidopsis thaliana, UniProt O82132 195-276, looked up)
chain: B1 chain with D47A
notes: as for B1
B11: DREB2A_(195-276) V239A (domain or fragment, Arabidopsis thaliana, UniProt O82132 195-276, looked up)
chain: B1 chain with V45A
notes: as for B1
B12: DREB2A_(234-272) (domain or fragment, Arabidopsis thaliana, UniProt O82132 234-272, looked up)
chain: QDSLSVADYGWPNDVDQSHLDSSDMFDVDELLRDLNGDD
notes: DREB2A, Arabidopsis thaliana, AT5G05410, residues 234-272; source: E. coli BL21 DE3, purified (glutathione Sepharose, TEV cleavage, SEC); not shown: GST, N-terminal, cleaved
B13: DREB2A_(151-335) (domain or fragment, Arabidopsis thaliana, UniProt O82132 151-335, looked up)
chain: VCTVETPGCVHVKTEDPDCESKPFSGGVEPMYCLENGAEEMKRGVKADKHWLSEFEHNYWSDILKEKEKQKEQGIVETCQQQQQDSLSVADYGWPNDVDQSHLDSSDMFDVDELLRDLNGDDVFAGLNQDRYPGNSVANGSYRPESQQSGFDPLQSLNYGIPPFQLEGKDGNGFFDDLSYLDLEN
notes: also called C-terminal intrinsically disordered region (IDR) of DREB2A; source: E. coli BL21 DE3, purified (glutathione Sepharose, TEV cleavage, SEC); not shown: GST, N-terminal, cleaved
B14: DREB2A_(234-256) (ABS) (domain or fragment, Arabidopsis thaliana, UniProt O82132 234-256, looked up)
chain: QDSLSVADYGWPNDVDQSHLDSS
notes: also called monovalent ABS fragment; source: E. coli BL21 DE3, purified (glutathione Sepharose, TEV cleavage, SEC); not shown: GST, N-terminal, cleaved
B15: FITC-DREB2A_(234-276) (domain or fragment, Arabidopsis thaliana, UniProt O82132 234-276, looked up)
chain: B4 chain with A12P
modifications: also: single FITC label, position not given here
notes: also called FITC-labeled ABS-RIM; single-labeled FITC-DREB2A; source: E. coli BL21 DE3, purified; labeled with a FITC labeling kit (Pierce) and purified by reversed phase chromatography; not shown: GST, N-terminal, cleaved

target: T1, Med25-ACID R568A; assay: ITC; conditions: not given

Molecule	Kd
B1	3.2 µM and 2.9 µM

target: Med25-ACID_(532-680), activator interaction domain (ACID) of mediator complex subunit 25 (Arabidopsis thaliana) (UniProt Q7XYY2); assay: NMR titration; 15N-HSQC; 100-150 µM 15N-labeled Med25-ACID(532-680) at constant concentration with increasing DREB2A ligand; 20 mM Na2HPO4/NaH2PO4 pH 6.5, 100 mM NaCl; chemical shift perturbations; conditions: not given

Molecule	KD (binding surface site)	KD (binding surface site, by NMR)	KD (groove site)
DREB2A_(255-276) (RIM) (from UniProt O82132 255-276) (domain or fragment)	3 to 6 mM	5 mM	200 to 400 µM

target: T2, Med25-ACID_(532-680), activator …; assay: ITC; 25 °C; 50 mM HEPES pH 7.4, 100 mM NaCl, 0.5 mM TCEP; ~1:10 cell to syringe concentration ratio, cell around 15 µM for high-affinity fragments; one-set-of-sites model; which protein was in the cell is not stated; conditions: both partners purified

Molecule	Kd	dH	stoichiometry N
B2	5400 nM	-59 kJ/mol	1.02
B3	440 nM	-58 kJ/mol	1
B4	780 ± 60 nM	-43.4 ± 0.8 kJ/mol	1.26 ± 0.01
B1	450 nM	-51.2 kJ/mol	1.09
B5	1900 ± 200 nM	-47 ± 1 kJ/mol	1 ± 0.1
B6	580 ± 40 nM	-61.2 ± 0.8 kJ/mol	1 ± 0.06
B7	660 ± 90 nM	-62 ± 2 kJ/mol	0.86 ± 0.02
B8	550 ± 50 nM	-58.8 ± 0.9 kJ/mol	1.2 ± 0.1
B9	2400 ± 300 nM	-22.9 ± 0.7 kJ/mol	1.03 ± 0.06
B10	2000 ± 700 nM	-37 ± 7 kJ/mol	1.07 ± 0.06
B11	2000 ± 200 nM	-42 ± 1 kJ/mol	0.95 ± 0.01
B12	1800 nM	-43 kJ/mol	0.97
B13		-52.3 kJ/mol	1.1
B14	6000 nM	-54 kJ/mol	0.86

Target: T3, Med25-ACID_(532-680), activator …
Assay: stopped-flow, cis proline isomer, 10 °C
Conditions: not given

Molecule	koff
QDSLSVADYGWPNDVDQSHLDSSDMFDVDELLRDLNGDDVFAG (domain or fragment, also: FITC label, position not given here)	6 s⁻¹

target: RCD1 RST (Arabidopsis thaliana) (UniProt Q8RY59); assay: not given; conditions: cited from earlier work

Molecule	Kd
DREB2A (from UniProt O82132)	12 nM

Target: T3, Med25-ACID_(532-680), activator …
Assay: stopped-flow, trans proline isomer, 10 °C
Conditions: not given

Molecule	koff
QDSLSVADYGWPNDVDQSHLDSSDMFDVDELLRDLNGDDVFAG (domain or fragment, also: FITC label, position not given here)	24 s⁻¹

target: T4, Med25-ACID (Arabidopsis thaliana, UniProt Q7XYY2); assay: not given; conditions: SD
T4 construct: Med25-ACID532-680 (AT1G25540), expressed in E. coli with N-terminal GST tag removed by TEV protease
Protocol: All protein fragments were produced with an N-terminal Glutathione-S-transferase (GST) tag which was removed using Tobacco Etch Virus (TEV) protease and expressed from E.coli BL21 DE3 cells. DREB2A (AT5G05410) variants were expressed at 37 °C for three hours. The DREB2A splice variant (AT5G05410.2) was based on GenBank ID CD530293[21]. Due to stability and aggregation considerations, Med25-ACID (AT1G25540) was expressed with additional N-terminal residues. Expression of Med25-ACID532-680 was induced at high OD (0.8-1.0) and cultured overnight at 18 °C. Cells were resuspended in 20 mM Tris-HCl pH 8.0, 100 mM NaCl lysis buffer and sonicated. The lysate was incubated with glutathione Sepharose for one hour and washed using the lysis buffer. Aliquots of 5 mL resin were resuspended in 20 mL of lysis buffer with 5 mM dithiothreitol (DTT) and 1 mM EDTA and the protein was cleaved overnight at 4 °C using TEV protease. For DREB2A, cleaved protein was freeze-dried and buffer-changed to experimental buffer using size exclusion chromatography. Med25-ACID was further purified using cation exchange (Source 15 S) at pH 8.5 and the buffer was changed using size exclusion chromatography (Superdex S75 10/300 GL). Isotope-labeled proteins were produced by growing the initial culture in lysogenic broth and transferring to half volume M9 minimal media 30 min before induction.
ITC was performed on either a MicroCal ITC200 or a Malvern Pananalytical PEAQ-ITC. All ITC experiments were performed using a 50 mM HEPES pH 7.4, 100 mM NaCl and 0.5 mM tris(2-carboxyethyl)phosphine (TCEP) buffer. All experiments were performed using a ~ 1:10 cell to syringe protein concentration ratio. For high-affinity DREB2A fragments, the cell concentration was around 15 µM, while lower-affinity interaction experiments used higher concentrations. Samples were degassed by centrifuging at 20,000 x g for 20 minutes at experimental temperature. For three DREB2A fragments, experiments were performed over a range of temperatures to determine the ΔCp. Reported thermodynamic parameters are given at 25 °C. Data were analyzed using Origin and inhouse scripts using the one-set-of-sites model as documented by MicroCal and Origin. Dilution heats were fitted using an offset parameter. Most experiments were performed using a 0.5 µl initial injection, which was discarded in the analysis, followed by 18 injections of 2.0 µl.

T4 sequence (Q7XYY2 532-680): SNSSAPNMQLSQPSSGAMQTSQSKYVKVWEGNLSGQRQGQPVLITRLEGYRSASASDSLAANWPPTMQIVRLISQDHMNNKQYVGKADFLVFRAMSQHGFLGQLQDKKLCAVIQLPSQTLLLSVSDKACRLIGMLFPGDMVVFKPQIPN

Molecule	Kd
DREB2A195-276 D241A	2000 ± 700 nM
DREB2A195-276 V239A	2000 ± 200 nM
DREB2A234-335 [234–335]	440 ± 60 nM
DREB2A195-276 F274A	660 ± 90 nM
DREB2A195-276 F259A	550 ± 50 nM
DREB2A195-276 L237A	2400 ± 300 nM
DREB2A195-276 W244A	1900 ± 200 nM
DREB2A151-335 [151–335]	540 ± 40 nM
DREB2A195-276 E263P	580 ± 40 nM
DREB2A195-335,Δ244-276 (splice variant fragment) [195–335 ∆244–276]	5400 ± 600 nM

Target: T3, Med25-ACID_(532-680), activator …
Assay: NMR; second site (Kd,2), competitive two binding sites model
Conditions: not given

Molecule	Kd
SSDMFDVDELLRDLNGDDVFAG (domain or fragment) [DREB2A_(255-276) (RIM)]	4.7 mM

Target: T3, Med25-ACID_(532-680), activator …
Assay: NMR; first site (Kd,1), competitive two binding sites model
Conditions: not given

Molecule	Kd
SSDMFDVDELLRDLNGDDVFAG (domain or fragment) [DREB2A_(255-276) (RIM)]	280 µM

target: T2, Med25-ACID_(532-680), activator …; assay: stopped-flow fluorescence; FITC-DREB2A (50 nM 234-276 or 250 nM 234-256) mixed with increasing Med25-ACID(532-680), pseudo-first-order; dissociation by competitive displacement with unlabeled DREB2A; 50 mM HEPES pH 7.4, 100 mM NaCl, 1 mM DTT; Fig. 7 legend gives kinetic rate constants at 10 °C; conditions: both partners purified

Molecule	binding result
B15	binds
